Measurements published in publication PMC4264680.
Where two headings read alike, the source gives them in different places.

B1: Th GC-R1/CRE duplex WT (EMSA) (dsDNA)
DNA 1: GCAGGAGGTAGGAGGTGGGGGACCCAGAGGGGCTTTGACGTCAGCCTGGCC
DNA 2: GGCCAGGCTGACGTCAAAGCCCCTCTGGGTCCCCCACCTCCTACCTCCTGC
B2: CRE mutant duplex (EMSA) (dsDNA)
DNA 1: GCAGGAGGTAGGAGGTGGGGGACCCAGAGGGGCTTGTCATCAGGCCTGGCC
DNA 2: GGCCAGGCCTGATGACAAGCCCCTCTGGGTCCCCCACCTCCTACCTCCTGC

Legend:
Assay in all cases: EMSA
CREB (purified) [1] = target: T1, CREB (purified) (UniProt P16220 1-327)
T1 sequence (P16220 whole entry): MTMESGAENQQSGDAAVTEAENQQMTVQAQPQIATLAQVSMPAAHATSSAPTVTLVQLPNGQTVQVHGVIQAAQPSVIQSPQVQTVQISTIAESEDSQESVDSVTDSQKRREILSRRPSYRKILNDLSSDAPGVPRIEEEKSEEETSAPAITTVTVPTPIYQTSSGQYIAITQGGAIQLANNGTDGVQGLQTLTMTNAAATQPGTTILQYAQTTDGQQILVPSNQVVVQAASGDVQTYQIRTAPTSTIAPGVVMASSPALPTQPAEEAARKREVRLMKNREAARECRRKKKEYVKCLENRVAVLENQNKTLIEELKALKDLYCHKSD

[2] = target: hnRNP K (purified);CREB (purified) (;, UniProt P61978;P16220 1-463;1-327, |)
Sequence of hnRNP K (purified);CREB (purified) (P16220 whole entry, chain 2 of 2, other chains not shown): as the sequence (P16220 whole entry) above

CREB (purified) [3] = target: T1, CREB (purified); remark: listed apart in the source

| Binder | binding result (CREB (purified) [1]) | binding result [2] | binding result (CREB (purified) [3]) |
| --- | --- | --- | --- |
| B1 | binds | binds | – |
| B2 | – | – | binds |
